The values below come from publication PMC3673938, “Two Distinct Calmodulin Binding Sites in the Third Intracellular Loop and Carboxyl Tail of Angiotensin II (AT1A) Receptor” (PLoS ONE, 2013).

For one assay, the target named is AT1A receptor-eYFP (UniProt P25095). The assay can be described thus: FRET or BRET; BRET in living HEK293 cells stably expressing AT1A receptor-eYFP and transiently RLuc-CaM, CaM-RLuc or RLuc; 5 µM coelenterazine; ratio 525 nm/460 nm; with or without W7 (20 min) and/or 100 nM Ang II. On the technique in general: In BRET a luciferase serves as donor, and the signal depends on an acceptor being close.

Another assay concerns the target GST-ATct(297–359). The assay can be described thus: pull-down; competition: 2 pmol GST-fusion protein incubated with bovine brain CaM (2 or 10 pmol) for 30 minutes in 20 mM Tris-HCl, 70 mM NaCl, 0.1 mM CaCl2, pH 7.5, then 2 pmol Gβγ for 1 hour; glutathione-sepharose 4B beads; immunoblot with anti-Gβ.
A further assay deals with GST-ATi3(213–242). Described as above.
The target in another assay is GST-ATctN(297–324)F309A (UniProt P25095). The assay can be described thus: pull-down; 50 pmol GST-fusion protein with purified bovine brain CaM (50 pmol) in 250 µl of 100 mM Tris-HCl pH 7.5 with 0.1 mM CaCl2; 4°C; glutathione-sepharose 4B beads; immunoblot with anti-CaM; for the mutants density of CaM against loaded GST-fusion protein.
The next assay addresses GST-ATctN(297–324)F313A (UniProt P25095). Described as above.
A further assay addresses GST-ATi3N(213–234)W219A (UniProt P25095). Described as above.

GST-ATi3(213–242), sequence (P29754 213-242): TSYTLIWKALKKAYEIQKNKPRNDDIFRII
GST-ATctN(297–324)F309A, sequence (P25095 297-324 F309A): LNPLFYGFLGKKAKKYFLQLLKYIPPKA
GST-ATi3N(213–234)W219A, sequence (P25095 213-234 W219A): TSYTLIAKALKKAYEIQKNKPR
GST-ATctN(297–324)F313A, sequence (P25095 297-324 F313A): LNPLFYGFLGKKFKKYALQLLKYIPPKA
AT1A receptor-eYFP, sequence (P25095 whole entry): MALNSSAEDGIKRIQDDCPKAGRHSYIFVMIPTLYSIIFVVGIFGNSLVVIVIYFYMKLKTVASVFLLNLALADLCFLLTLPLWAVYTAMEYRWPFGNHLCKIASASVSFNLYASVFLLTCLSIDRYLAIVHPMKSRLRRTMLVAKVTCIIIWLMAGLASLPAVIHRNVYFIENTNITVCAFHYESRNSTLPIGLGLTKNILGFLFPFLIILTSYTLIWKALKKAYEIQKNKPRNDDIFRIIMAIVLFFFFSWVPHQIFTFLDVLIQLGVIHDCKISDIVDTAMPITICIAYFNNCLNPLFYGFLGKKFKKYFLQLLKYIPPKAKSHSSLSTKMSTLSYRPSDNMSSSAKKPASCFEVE

For “CaM-RLuc (from UniProt P0DP23 1-149) (natural protein)”, the BRET ratio with the CaM inhibitor W7, % of untreated (% of non-W7-treated) with AT1A receptor-eYFP was 40.

“calmodulin purified from bovine brain (from UniProt P62157 1-149) (natural protein)”: in the assay with GST-ATct(297–359), the Gβγ bound to GST-ct with 2 pmol CaM, % of no CaM stood at 73% and the Gβγ bound to GST-ct with 10 pmol CaM, % of no CaM amounted to 34%. In the assay with GST-ATi3(213–242), this substance had a Gβγ bound to GST-i3 loop with 2 pmol CaM, % of no CaM of 77% and a Gβγ bound to GST-i3 loop with 10 pmol CaM, % of no CaM of 60%. In the assay with GST-ATctN(297–324)F309A, this substance showed a relative binding efficiency, % of wild type (% of wild type) of 29. The substance also yielded a relative binding efficiency, % of wild type (% of wild type) with GST-ATctN(297–324)F313A of 22. For the same substance, in the assay with GST-ATi3N(213–234)W219A, the relative binding efficiency, % of wild type (% of wild type) worked out at 32.
